One block for each binder: values may come before it. Numbered stars: 1 amine (or outer) side, 2 acyl side, 3 side chain; on linkers, the order of the positions; unused ones are H or OH. Side chains are listed from the residue outwards. Ends that are not written are not given here. * marks the point of attachment. C20 diacid = O=C(O)CCCCCCCCCCCCCCCCCCC(=O)*; γGlu = O=C(O)[C@H](CCC(=O)[*:2])N[*:1]
What was measured:
[1] = biological target: T1, human calcitonin receptor (human, UniProt P30988 25-474); experiment: SPA competition vs 125I-calcitonin, membranes with human CTR (Assay VII)
T1 construct: whole, on cells; Assay VII: membranes on SPA beads; also called hCT-R; hCTR
T1 sequence (looked up): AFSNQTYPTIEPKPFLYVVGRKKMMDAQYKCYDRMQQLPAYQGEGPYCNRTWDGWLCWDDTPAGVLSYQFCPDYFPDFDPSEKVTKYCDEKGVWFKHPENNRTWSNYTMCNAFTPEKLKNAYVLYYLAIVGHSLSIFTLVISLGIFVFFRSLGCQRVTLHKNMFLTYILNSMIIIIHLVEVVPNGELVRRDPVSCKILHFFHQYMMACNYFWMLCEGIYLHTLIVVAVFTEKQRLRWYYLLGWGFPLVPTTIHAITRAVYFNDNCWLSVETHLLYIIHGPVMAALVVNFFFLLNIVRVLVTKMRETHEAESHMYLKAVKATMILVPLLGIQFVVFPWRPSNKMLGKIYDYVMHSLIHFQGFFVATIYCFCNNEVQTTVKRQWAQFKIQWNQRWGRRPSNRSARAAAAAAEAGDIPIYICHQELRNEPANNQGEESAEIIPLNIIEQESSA
Protocol: The binding assay was performed using scintillation proximity assay (SPA) beads (RPNQ0001) from PerkinElmer® and cell membranes prepared from a BHK tk'ts 13 cell line was stably transfected with the human calcitonin receptor and a CRE-responsive luciferase reporter gene. Membranes were prepared in the following way; the cells were rinsed with PBS and incubated with Versene for approximately 5 min before harvesting. The cells were flushed with PBS and the cell-suspension was centrifuged for 5 min at 1000 rpm.
(§1) EDTA (pH 7.4, buffer 2). The resulting pellet was resuspended in buffer 2 and protein concentration was tested (BCA protein Assay, Pierce). The homogenate was kept cold during the whole procedure. The membranes were kept at −80° C. until use. Assay was performed in a 384 well Optiplate (PerkinElmer®) in a total volume of 40 ul. Membranes were mixed with SPA beads. Final concentration of membranes 35 ng/μL final and Final concentration of SPA beads was 0.05 mg/well. Test-compounds were dissolved in DMSO and further diluted in assay buffer (50 mM Hepes, pH 7.4, 1 mM CaCl2, 5 mM MgCl2, 0.1% OA and 0.02% Tween20). […] Samples were analyzed on TopCounter™ (Packard). The IC₅₀ was calculated using (one site binding competition analysis) GraphPad Prism5 as a measure of receptor affinity.

[2] = biological target: T2, human amylin receptor (amylin 3(a) receptor: human calcitonin receptor with RAMP-3) (human, UniProt P30988 25-474; O60896 24-148, limits assumed); experiment: SPA competition vs 125I-rat amylin, membranes with human CTR + RAMP-3 (Assay V)
T2 construct: whole, on cells; Assay V: membranes of the Amylin 3(a)/CRE-luc BHK cells on SPA beads; also called hAmylin-R
T2 sequence (looked up) 1: T1 sequence (looked up)
T2 sequence (looked up) 2: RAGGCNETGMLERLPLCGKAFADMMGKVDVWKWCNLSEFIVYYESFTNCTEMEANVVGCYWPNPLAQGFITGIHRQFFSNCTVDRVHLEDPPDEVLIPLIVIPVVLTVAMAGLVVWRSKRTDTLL
Protocol: as §1, with “The binding assay was performed using scintillation proximity assay (SPA) beads (RPNQ0001) from PerkinElmer and cell membranes from the Amylin 3(a)/CRE-luc cells (as described in Assay (II)) were used. Membranes were prepared in the following way; the cells were rinsed with PBS and incubated with Versene for approximately 5 min before harvesting. The cells were flushed with PBS and the cell-suspension was centrifuged for 5 min at 1000 rpm. […] The” for “EDTA (pH 7.4, buffer 2). The”, “use. The assay” for “use. Assay”, “Optiplate (PerkinElmer)” for “Optiplate (PerkinElmer®)”, “and” for “and Final concentration of”

IC50 [1]: 0.085 nM | IC50 [2]: 0.442 nM
B3: [des1, 19K(C20 diacid-gGlu), 30S, 31G]mimylin (peptide)
peptide: ASELSTAALGRLSAELHK([γGlu-C20 diacid])LATLPRTETGSGSP-NH2
modifications: N-terminus assumed
SMILES: CC(C)C[C@H](NC(=O)[C@H](C)NC(=O)[C@H](C)NC(=O)[C@@H](NC(=O)[C@H](CO)NC(=O)[C@H](CC(C)C)NC(=O)[C@H](CCC(=O)O)NC(=O)[C@H](CO)NC(=O)[C@H](C)N)[C@@H](C)O)C(=O)NCC(=O)N[C@@H](CCCNC(=N)N)C(=O)N[C@@H](CC(C)C)C(=O)N[C@@H](CO)C(=O)N[C@@H](C)C(=O)N[C@@H](CCC(=O)O)C(=O)N[C@@H](CC(C)C)C(=O)N[C@@H](Cc1c[nH]cn1)C(=O)N[C@@H](CCCCNC(=O)CC[C@H](NC(=O)CCCCCCCCCCCCCCCCCCC(=O)O)C(=O)O)C(=O)N[C@@H](CC(C)C)C(=O)N[C@@H](C)C(=O)N[C@H](C(=O)N[C@@H](CC(C)C)C(=O)N1CCC[C@H]1C(=O)N[C@@H](CCCNC(=N)N)C(=O)N[C@H](C(=O)N[C@@H](CCC(=O)O)C(=O)N[C@H](C(=O)NCC(=O)N[C@@H](CO)C(=O)NCC(=O)N[C@@H](CO)C(=O)N1CCC[C@H]1C(N)=O)[C@@H](C)O)[C@@H](C)O)[C@@H](C)O
notes: mimylin derivative; des1 = residue 1 deleted; also called Ex. #54; 54

IC50 [1]: 0.215 nM | IC50 [2]: 0.114 nM
B5: [des1, 16K(C20 diacid-gGlu), 30S, 31G]mimylin (peptide)
peptide: ASELSTAALGRLSAK([γGlu-C20 diacid])LHELATLPRTETGSGSP-NH2
modifications: N-terminus assumed
SMILES: CC(C)C[C@H](NC(=O)[C@H](C)NC(=O)[C@H](C)NC(=O)[C@@H](NC(=O)[C@H](CO)NC(=O)[C@H](CC(C)C)NC(=O)[C@H](CCC(=O)O)NC(=O)[C@H](CO)NC(=O)[C@H](C)N)[C@@H](C)O)C(=O)NCC(=O)N[C@@H](CCCNC(=N)N)C(=O)N[C@@H](CC(C)C)C(=O)N[C@@H](CO)C(=O)N[C@@H](C)C(=O)N[C@@H](CCCCNC(=O)CC[C@H](NC(=O)CCCCCCCCCCCCCCCCCCC(=O)O)C(=O)O)C(=O)N[C@@H](CC(C)C)C(=O)N[C@@H](Cc1c[nH]cn1)C(=O)N[C@@H](CCC(=O)O)C(=O)N[C@@H](CC(C)C)C(=O)N[C@@H](C)C(=O)N[C@H](C(=O)N[C@@H](CC(C)C)C(=O)N1CCC[C@H]1C(=O)N[C@@H](CCCNC(=N)N)C(=O)N[C@H](C(=O)N[C@@H](CCC(=O)O)C(=O)N[C@H](C(=O)NCC(=O)N[C@@H](CO)C(=O)NCC(=O)N[C@@H](CO)C(=O)N1CCC[C@H]1C(N)=O)[C@@H](C)O)[C@@H](C)O)[C@@H](C)O
notes: mimylin derivative; des1 = residue 1 deleted; also called Ex. #53; 53

IC50 [1]: 0.136 nM | IC50 [2]: 0.724 nM
B6: [des1, 4K(C20 diacid-gGlu), 30S, 31G]mimylin (peptide)
peptide: ASK([γGlu-C20 diacid])LSTAALGRLSAELHELATLPRTETGSGSP-NH2
modifications: N-terminus assumed
SMILES: CC(C)C[C@H](NC(=O)[C@H](C)NC(=O)[C@H](C)NC(=O)[C@@H](NC(=O)[C@H](CO)NC(=O)[C@H](CC(C)C)NC(=O)[C@H](CCCCNC(=O)CC[C@H](NC(=O)CCCCCCCCCCCCCCCCCCC(=O)O)C(=O)O)NC(=O)[C@H](CO)NC(=O)[C@H](C)N)[C@@H](C)O)C(=O)NCC(=O)N[C@@H](CCCNC(=N)N)C(=O)N[C@@H](CC(C)C)C(=O)N[C@@H](CO)C(=O)N[C@@H](C)C(=O)N[C@@H](CCC(=O)O)C(=O)N[C@@H](CC(C)C)C(=O)N[C@@H](Cc1c[nH]cn1)C(=O)N[C@@H](CCC(=O)O)C(=O)N[C@@H](CC(C)C)C(=O)N[C@@H](C)C(=O)N[C@H](C(=O)N[C@@H](CC(C)C)C(=O)N1CCC[C@H]1C(=O)N[C@@H](CCCNC(=N)N)C(=O)N[C@H](C(=O)N[C@@H](CCC(=O)O)C(=O)N[C@H](C(=O)NCC(=O)N[C@@H](CO)C(=O)NCC(=O)N[C@@H](CO)C(=O)N1CCC[C@H]1C(N)=O)[C@@H](C)O)[C@@H](C)O)[C@@H](C)O
notes: mimylin derivative; des1 = residue 1 deleted; also called Ex. #52; 52

IC50 [1]: 0.077 nM | IC50 [2]: 0.206 nM
B8: [N-terminal(acetyl), des1, 19K(C20 diacid-gGlu), 30S, 31G]mimylin (peptide)
peptide: Ac-ASELSTAALGRLSAELHK([γGlu-C20 diacid])LATLPRTETGSGSP-NH2
notes: mimylin derivative; des1 = residue 1 deleted; also called Ex. #70; 70

Further lines, the binder ahead of its results:

B1: [N-terminal(C20 diacid-gGlu), des1, 30S, 31G, 33H]mimylin (peptide)
peptide: {C20 diacid-γGlu}-ASELSTAALGRLSAELHELATLPRTETGSGSH-NH2
SMILES: CC(C)C[C@H](NC(=O)[C@H](C)NC(=O)[C@H](C)NC(=O)[C@@H](NC(=O)[C@H](CO)NC(=O)[C@H](CC(C)C)NC(=O)[C@H](CCC(=O)O)NC(=O)[C@H](CO)NC(=O)[C@H](C)NC(=O)CC[C@H](NC(=O)CCCCCCCCCCCCCCCCCCC(=O)O)C(=O)O)[C@@H](C)O)C(=O)NCC(=O)N[C@@H](CCCNC(=N)N)C(=O)N[C@@H](CC(C)C)C(=O)N[C@@H](CO)C(=O)N[C@@H](C)C(=O)N[C@@H](CCC(=O)O)C(=O)N[C@@H](CC(C)C)C(=O)N[C@@H](Cc1c[nH]cn1)C(=O)N[C@@H](CCC(=O)O)C(=O)N[C@@H](CC(C)C)C(=O)N[C@@H](C)C(=O)N[C@H](C(=O)N[C@@H](CC(C)C)C(=O)N1CCC[C@H]1C(=O)N[C@@H](CCCNC(=N)N)C(=O)N[C@H](C(=O)N[C@@H](CCC(=O)O)C(=O)N[C@H](C(=O)NCC(=O)N[C@@H](CO)C(=O)NCC(=O)N[C@@H](CO)C(=O)N[C@@H](Cc1c[nH]cn1)C(N)=O)[C@@H](C)O)[C@@H](C)O)[C@@H](C)O
notes: mimylin derivative; des1 = residue 1 deleted; also called Ex. #60; 60
IC50 [1]: 0.034 nM | IC50 [2]: 0.057 nM

B2: [N-terminal(acetyl), des1, 4K(C20 diacid-gGlu), 30S, 31G]mimylin (peptide)
peptide: Ac-ASK([γGlu-C20 diacid])LSTAALGRLSAELHELATLPRTETGSGSP-NH2
notes: mimylin derivative; des1 = residue 1 deleted; also called Ex. #68; 68
IC50 [1]: 0.01 nM | IC50 [2]: 0.05 nM

B4: [N-terminal(C20 diacid-gGlu), des1, 30S, 31G, 33Y]mimylin (peptide)
peptide: {C20 diacid-γGlu}-ASELSTAALGRLSAELHELATLPRTETGSGSY-NH2
SMILES: CC(C)C[C@H](NC(=O)[C@H](C)NC(=O)[C@H](C)NC(=O)[C@@H](NC(=O)[C@H](CO)NC(=O)[C@H](CC(C)C)NC(=O)[C@H](CCC(=O)O)NC(=O)[C@H](CO)NC(=O)[C@H](C)NC(=O)CC[C@H](NC(=O)CCCCCCCCCCCCCCCCCCC(=O)O)C(=O)O)[C@@H](C)O)C(=O)NCC(=O)N[C@@H](CCCNC(=N)N)C(=O)N[C@@H](CC(C)C)C(=O)N[C@@H](CO)C(=O)N[C@@H](C)C(=O)N[C@@H](CCC(=O)O)C(=O)N[C@@H](CC(C)C)C(=O)N[C@@H](Cc1c[nH]cn1)C(=O)N[C@@H](CCC(=O)O)C(=O)N[C@@H](CC(C)C)C(=O)N[C@@H](C)C(=O)N[C@H](C(=O)N[C@@H](CC(C)C)C(=O)N1CCC[C@H]1C(=O)N[C@@H](CCCNC(=N)N)C(=O)N[C@H](C(=O)N[C@@H](CCC(=O)O)C(=O)N[C@H](C(=O)NCC(=O)N[C@@H](CO)C(=O)NCC(=O)N[C@@H](CO)C(=O)N[C@@H](Cc1ccc(O)cc1)C(N)=O)[C@@H](C)O)[C@@H](C)O)[C@@H](C)O
notes: mimylin derivative; des1 = residue 1 deleted; also called Ex. #59; 59
IC50 [1]: 0.113 nM | IC50 [2]: 0.243 nM

B7: [N-terminal(acetyl), des1, 16K(C20 diacid-gGlu), 30S, 31G]mimylin (peptide)
peptide: Ac-ASELSTAALGRLSAK([γGlu-C20 diacid])LHELATLPRTETGSGSP-NH2
notes: mimylin derivative; des1 = residue 1 deleted; also called Ex. #69; 69
IC50 [1]: 0.046 nM | IC50 [2]: 0.074 nM
